# The supplement of paper PMC9112550, “Optimization of the antimicrobial peptide Bac7 by deep mutational scanning” (BMC Biology, 2022)
# System: Escherichia coli TOP10
# Assay: shrunken log2 fold change of peptide-encoding DNA abundance (4.5 h post-induction vs induction); higher = less antimicrobial activity (less host growth inhibition)
# Conditions: time post-induction: 4.5 h; library: site-saturation at positions 5, 18, 19, 20
# 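Further: peptides expressed intracellularly from a pBAD plasmid library in pooled LB shake-flask culture, induced with 0.3% L-arabinose, DNA abundance read by NGS, three biological replicates, DESeq2 with apeglm shrinkage.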
row,Sequence,shrunken log2 fold change
1,RRIRPRPPRLPRPRPRPNSSPRP,-0.396
2,RRIRGRPPRLPRPRPRPGEAPRP,1.48
3,RRIRCRPPRLPRPRPRPTTMPRP,0.722
4,RRIRRRPPRLPRPRPRPSIVPRP,0.26
5,RRIRSRPPRLPRPRPRPYVEPRP,-0.442
6,RRIRGRPPRLPRPRPRPAWCPRP,0.822
7,RRIRHRPPRLPRPRPRPENSPRP,-0.304
8,RRIRARPPRLPRPRPRPWMYPRP,-0.794
9,RRIRQRPPRLPRPRPRPAAIPRP,0.111
10,RRIRKRPPRLPRPRPRPFHHPRP,-0.131
11,RRIRQRPPRLPRPRPRPPDVPRP,0.124
12,RRIRQRPPRLPRPRPRPNHIPRP,-0.526
13,RRIRTRPPRLPRPRPRPYAAPRP,-0.445
14,RRIRHRPPRLPRPRPRPWHNPRP,-0.261
15,RRIRNRPPRLPRPRPRPWGSPRP,-0.275
16,RRIRRRPPRLPRPRPRPKCNPRP,-0.0456
17,RRIRQRPPRLPRPRPRPTENPRP,0.0631
18,RRIRDRPPRLPRPRPRPGGFPRP,0.134
19,RRIRHRPPRLPRPRPRPSPNPRP,-0.302
20,RRIRVRPPRLPRPRPRPYSDPRP,-0.145
21,RRIRIRPPRLPRPRPRPICHPRP,-0.326
22,RRIRHRPPRLPRPRPRPLAWPRP,0.198
23,RRIRERPPRLPRPRPRPNIMPRP,-0.444
24,RRIRRRPPRLPRPRPRPCMYPRP,-0.0801
25,RRIRFRPPRLPRPRPRPPFAPRP,0.423

row,Sequence,shrunken log2 fold change
1,RRIRIRPPRLPRPRPRPRKYPRP,-0.561
2,RRIRPRPPRLPRPRPRPVYCPRP,-0.375
3,RRIRARPPRLPRPRPRPTTDPRP,0.745
4,RRIRARPPRLPRPRPRPEQMPRP,1.06
5,RRIRGRPPRLPRPRPRPIMLPRP,2.36
6,RRIRHRPPRLPRPRPRPPAMPRP,0.0064
7,RRIRFRPPRLPRPRPRPFSVPRP,-1.57
8,RRIRMRPPRLPRPRPRPDIVPRP,0.0138
9,RRIRCRPPRLPRPRPRPYLGPRP,-0.213
10,RRIRIRPPRLPRPRPRPNDQPRP,-0.43
11,RRIRERPPRLPRPRPRPQQAPRP,0.01
12,RRIRQRPPRLPRPRPRPPKRPRP,0.487
13,RRIRTRPPRLPRPRPRPANDPRP,-0.116
14,RRIRMRPPRLPRPRPRPVILPRP,-0.826
15,RRIRFRPPRLPRPRPRPKEDPRP,0.122
16,RRIRMRPPRLPRPRPRPDHIPRP,-0.000611
17,RRIRLRPPRLPRPRPRPLMLPRP,-0.257
18,RRIRCRPPRLPRPRPRPITSPRP,0.0215
19,RRIRQRPPRLPRPRPRPERRPRP,0.0099
20,RRIRGRPPRLPRPRPRPGSIPRP,0.185
21,RRIRVRPPRLPRPRPRPKKNPRP,0.28
22,RRIRKRPPRLPRPRPRPQMDPRP,0.618
23,RRIRVRPPRLPRPRPRPWETPRP,0.0394
24,RRIRLRPPRLPRPRPRPPFVPRP,0.00109
25,RRIRLRPPRLPRPRPRPWYPPRP,-0.242

row,Sequence,shrunken log2 fold change
1,RRIRWRPPRLPRPRPRPQSVPRP,0.119
2,RRIRHRPPRLPRPRPRPAAKPRP,0.218
3,RRIRCRPPRLPRPRPRPHIVPRP,-0.325
4,RRIRPRPPRLPRPRPRPPTKPRP,0.268
5,RRIRPRPPRLPRPRPRPMNDPRP,-0.329
6,RRIRIRPPRLPRPRPRPDFKPRP,3.01
7,RRIRPRPPRLPRPRPRPQGPPRP,0.0552
8,RRIRWRPPRLPRPRPRPPQSPRP,0.128
9,RRIRIRPPRLPRPRPRPFIWPRP,-0.242
10,RRIRQRPPRLPRPRPRPFQNPRP,-0.179
11,RRIRRRPPRLPRPRPRPLYNPRP,-0.295
12,RRIRYRPPRLPRPRPRPSMMPRP,-1.21
13,RRIRYRPPRLPRPRPRPFHDPRP,-0.195
14,RRIRYRPPRLPRPRPRPIQNPRP,-0.219
15,RRIRDRPPRLPRPRPRPWYSPRP,-0.0808
16,RRIRPRPPRLPRPRPRPKSHPRP,-0.246
17,RRIRMRPPRLPRPRPRPKPFPRP,0.236
18,RRIRPRPPRLPRPRPRPMGWPRP,0.217
19,RRIRARPPRLPRPRPRPGTNPRP,0.204
20,RRIRQRPPRLPRPRPRPFVIPRP,-0.131
21,RRIRSRPPRLPRPRPRPNFIPRP,-0.391
22,RRIRGRPPRLPRPRPRPLCYPRP,0.238
23,RRIRPRPPRLPRPRPRPMTNPRP,-0.184
24,RRIRPRPPRLPRPRPRPDDQPRP,0.0917
25,RRIRTRPPRLPRPRPRPMSNPRP,-0.535
